In assay [1] the test system is tyrosine hydroxylase (TH). The experiment in a line: TH activity (DOPA levels after NSD-1015) in N27 cells. It is filed as cell-based, rat. The following applies: 2 mM NSD-1015, rottlerin 3 hr vs DMSO, PKCδ-DN vs LacZ. How it is done: Plasmid pPKCδ^K376R-V5 encodes the loss of function PKCδ-V5 epitope tagged mutant protein; K376R refers to the mutation of the lysine residue at position 376 to arginine in the catalytic site resulting in inactivation of the kinase. Plasmid pLacZ-V5 encodes the β-galactosidase protein alone with a V5-epitope and is used as a vector control. N27 cells stably expressing PKCδ^K376R-V5 (herein referred to as PKCδ-DN cells) and LacZ alone-expressing cells (LacZ cells) were cultured as described previously (Kitazawa et al., 2005). PKCδ-DN or LacZ expressing N27 cells were identified by immunostaining of the C-terminal V5 epitope on expressed proteins and were differentiated with cAMP analogs (e.g. dibutyral cAMP) prior to experiments. PKCδ-DN and LacZ were also transiently expressed in mouse primary mesencephalic neurons using an AMAXA® Nucleofector™ kit (AMAXA GmbH, Germany). As described above, primary mesencephalic neurons were prepared from the midbrain of 16-18-day-old mice embryos. After digestion with trypsin-EDTA-HBSS, the primary neurons were homogenously resuspended with transfection buffer provided with the kit to a final concentration of 4-5×10^6 neurons/100 μl and mixed with 1 μg plasmid DNA encoding either PKCδ-DN-V5 or LacZ-V5. […] Transfection efficiency was >75% as determined by immunostaining of V5-expression. […]

In another assay the test system is N27 cells. The experiment in a line: Cellular DA and DOPAC levels in N27 cells (HPLC-EC). It is filed as cell-based, rat. The following applies: N27 cells; rottlerin vs vehicle, PKCδ-DN vs LacZ. The method, then: (§1) PC12 cells, differentiated N27 dopaminergic cells and primary mesencephalic neurons were exposed to 1-10 μM rottlerin for the duration of the experiment. DMSO (0.01%) was used as vehicle control. PKCδ-DN- and Lac Z-expressing N27 cells were only treated with 0.01% DMSO. […] Untreated or vehicle treated cells were used as control samples.
DA and DOPAC levels in PC12, N27 cells and in brain striatal tissues were determined by high-performance liquid chromatography with electrochemical detection (HPLC-EC); samples were prepared as described previously (Kitazawa et al., 2001). The DA and DOPAC levels were measured as pg/mg protein and expressed as percent of control.

In assay [2] the test system is tyrosine hydroxylase (TH). Put plainly: TH phosphorylation in N27 cells (Western blot, immunofluorescence). It counts as cell-based, rat. The method, then:
as §1
Cell and brain lysates containing equal amounts of protein were loaded in each lane and separated on a 10-12% SDS-PAGE gel as described previously (Kaul et al., 2003). After the separation, proteins were transferred to nitrocellulose membrane, and nonspecific binding sites were blocked by treating with 5% nonfat dry milk powder. The membranes were then treated with primary antibodies directed against PKCδ (rabbit polyclonal or mouse monoclonal, 1:2000 dilution), TH (rabbit polyclonal or mouse monoclonal, 1:1000), phospho TH-ser40 (rabbit polyclonal, 1:1000), phospho TH-ser31 TH (rabbit polyclonal, 1:1000), or PP2A (mouse monoclonal, 1:1000). The primary antibody treatments were followed by treatment with secondary HRP-conjugated anti-rabbit or anti-mouse IgG (1:2000) for 1 hr at RT. Secondary antibody-bound proteins were detected using Amersham's ECL chemiluminescence kit. To confirm equal protein loading, blots were reprobed with a β-actin antibody (1:5000 dilution). Western blot images were captured with a Kodak 2000 MM imaging system and data were analyzed using 1D Kodak imaging analysis software.
Immunostaining of PKCδ, TH, Ser40 P-TH and Ser31 P-TH was performed in PC12, N27 and primary mesencephalic neurons. Cells were grown on poly-L-Lysine-coated glass cover slips. After treatment, the cells were fixed with 4% paraformaldehyde and processed for immunohistochemical staining. […] Then the coverslips containing stained cells were washed with PBS, mounted on a slide, and viewed under a Nikon inverted fluorescence microscope (Model TE-2000U); images were captured with a SPOT digital camera (Diagnostic Instruments, Sterling Heights, Mich.).
A general note: Immunoblotting shows a protein as a band on a membrane.

Assay [3] has as its system tyrosine hydroxylase (TH). The experiment in a line: TH-ser40 phosphorylation in primary mesencephalic neurons (immunofluorescence). It counts as cell-based, mouse. Conditions: primary neurons, 24 hr post-transfection. The method, then: PC12 and N27 cells were cultured as described earlier (Anantharam et al., 2002; Kaul et al., 2003). Briefly, cells were grown in RPMI 1640 medium containing 10% fetal bovine serum, 2 mM L-glutamine, 50 units of penicillin, and 50 μg/ml streptomycin. Cells were maintained in a humidified atmosphere of 5% CO2 at 37° C. N27 cells were differentiated with 2 mM dibutyryl cAMP for 3-5 days and then used for experiments described below. Primary mesencephalic neuronal cultures were prepared from the ventral mesencephalon of gestational 16-18-day-old mice embryos as described previously (Yang et al., 2004). Mesencephalic tissues were dissected and maintained in ice-cold Ca^2+-free HESS and then dissociated in HBSS solution containing trypsin-EDTA (0.25%) for 20 min at 37° C. The dissociated cells were then plated at equal density (0.5×10^6 cells) in 30-mm-diameter tissue culture wells precoated with poly-L-lysine (1 mg/ml). […]
Plasmid pPKCδ^K376R-V5 encodes the loss of function PKCδ-V5 epitope tagged mutant protein; K376R refers to the mutation of the lysine residue at position 376 to arginine in the catalytic site resulting in inactivation of the kinase. […] Transfection efficiency was >75% as determined by immunostaining of V5-expression. […]

Another assay concerns PP2A. Put plainly: PP2A phosphatase activity in N27 cells (Serine/Threonine phosphatase assay kit). The following applies: rottlerin vs DMSO, PKCδ-DN vs LacZ. It is filed as cell-based, rat. How it is done: To determine PP2A phosphatase activity, we used the Serine/Threonine phosphatase assay kit from Promega. Briefly, N27 cells and substantia nigral tissue from mouse brain were homogenized in lysis buffer (25 mM Tris-HCl, 10 mM β-mercaptoethanol, 2 mM EDTA, protease inhibitor) supplied with the kit. After centrifugation, the supernatants were used for the assay. PP2A activity was determined by measuring the amount of free phosphate generated in a reaction by measuring the absorbance of a molybdate:malachite green: phosphate complex at 600 nm using the Spectramax plate reader (Molecular Devices). The effective range for the detection of phosphate released in this assay is 100-4,000 pmol of phosphate.

B1: PKCδ-DN: loss of function PKCδ-V5 epitope tagged mutant protein, lysine 376 to arginine, kinase inactive (protein, UniProt P28867 1-674, looked up, variant K376R)
chain: MAPFLRISFNSYELGSLQVEDEASQPFCAVKMKEALSTERGKTLVQKKPTMYPEWKTTFDAHIYEGRVIQIVLMRAAEDPVSEVTVGVSVLAERCKKNNGKAEFWLDLQPQAKVLMCVQYFLEDGDCKQSMRSEEEAKFPTMNRRGAIKQAKIHYIKNHEFIATFFGQPTFCSVCKEFVWGLNKQGYKCRQCNAAIHKKCIDKIIGRCTGTATNSRDTIFQKERFNIDMPHRFKVYNYMSPTFCDHCGSLLWGLVKQGLKCEDCGMNVHHKCREKVANLCGINQKLLAEALNQVTQRSSRKLDTTESVGIYQGFEKKPEVSGSDILDNNGTYGKIWEGSTRCTLENFTFQKVLGKGSFGKVLLAELKGKDKYFAIRCLKKDVVLIDDDVECTMVEKRVLALAWESPFLTHLICTFQTKDHLFFVMEFLNGGDLMFHIQDKGRFELYRATFYAAEIICGLQFLHSKGIIYRDLKLDNVMLDRDGHIKIADFGMCKENIFGEGRASTFCGTPDYIAPEILQGLKYSFSVDWWSFGVLLYEMLIGQSPFHGDDEDELFESIRVDTPHYPRWITKESKDIMEKLFERDPDKRLGVTGNIRIHPFFKTINWSLLEKRKVEPPFKPKVKSPSDYSNFDPEFLNEKPQLSFSDKNLIDSMDQEAFHGFSFVNPKFEQFLDI
modifications: full-length V5 epitope tag
For B1, the TH activity in assay [1] is 2539±307.3 pg DOPA/10^6 cells/hr. In addition, in the assay with N27 cells, the DA level is 4806±373 pg/μg protein, the DOPAC levels stood at 2783±968.31 pg/μg protein, the “increase in DA level” value stood at 4 fold and the “increase in DOPAC levels” value came to 3 fold. In addition, in assay [2] (N27 cells), the THser31 phosphorylation level entry was “unaltered” and the “level of total TH” value was “unaltered”. Also, the “fluorescent intensity of TH-ser40 immunostaining, increase versus Lac-Z” value in assay [2] (N27 cells stably expressing PKCδ-DN) came to 2.5 fold. Also, the “fluorescence of TH-ser40 immunostaining versus Lac-Z expressing neurons” value in assay [3] is “about 2.5 times”. Besides, the “reduction of PP2A activity” value in the assay with PP2A amounted to 56%.

These data come from US8653023B1, “Dual beneficial effect of dopamine enhancing and neuroprotective actions of PKC delta inhibitors for treatment of Parkinson's disease” (Iowa State University Research Foundation, Inc., priority 2006, dated 2014).
